Molecular target: HLA-A*02:01 (human)
Assay: UV-exchange b2m ELISA; exchange-yield grade
Conditions: remark: other sources report otherwise

**Q.** SVFAHPRKL […] was tested. Which peptide exchange yield did it give?
**A.** The peptide exchange yield was 50 to 75%.

Source: patent publication US20180222961A1
